This is an account of results in article PMC10397247.

Where two headings read alike, the source gives them in different places.

What all share (assay): two-hybrid library CCmax;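 also: natural log of median RNA to DNA barcode read ratio; higher means stronger binding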
The target in one experiment is T1, 4H2504-AA.
T1 chain: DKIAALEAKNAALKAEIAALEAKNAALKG
The following applies: mean of both orientations.

The next experiment addresses T2, 4H3493-AA.
T2 chain: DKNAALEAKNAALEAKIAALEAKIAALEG

The target in the next experiment is T3, 4H376-AA.
T3 chain: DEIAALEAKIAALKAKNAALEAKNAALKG
The following applies: mean of both orientations.

Another experiment deals with T4, 4H688-AA.
T4 chain: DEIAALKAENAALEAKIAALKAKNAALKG
The following applies: mean of both orientations.

A further experiment deals with T5, 4H963-AA.
T5 chain: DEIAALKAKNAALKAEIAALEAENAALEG
The following applies: mean of both orientations.

A further experiment addresses T6, 4H1552-AA.
T6 chain: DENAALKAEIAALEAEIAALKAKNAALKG
The following applies: mean of both orientations.

The next experiment has as its target T7, 4H1867-AA.
T7 chain: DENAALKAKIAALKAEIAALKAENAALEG
The following applies: mean of both orientations.

The next experiment deals with T8, 4H2151-AA.
T8 chain: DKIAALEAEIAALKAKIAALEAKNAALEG
The following applies: mean of both orientations.

Another experiment deals with T9, 4H_APH3.
T9 chain: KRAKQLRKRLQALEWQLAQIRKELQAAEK

The next experiment has as its target T10, AP2-AA.
T10 chain: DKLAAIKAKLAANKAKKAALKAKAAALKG
The following applies: mean of both orientations.

A further experiment deals with T11, AP3-AA.
T11 chain: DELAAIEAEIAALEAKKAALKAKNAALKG
The following applies: mean of both orientations.

The target in another experiment is T12, AP4-AA.
T12 chain: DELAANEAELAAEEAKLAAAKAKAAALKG
The following applies: mean of both orientations.

The target of another experiment is T13, AP6-AA.
T13 chain: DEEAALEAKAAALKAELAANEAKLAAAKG
The following applies: mean of both orientations.

The next experiment concerns the target T14, AP8-AA.
T14 chain: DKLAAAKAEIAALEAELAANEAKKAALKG
The following applies: mean of both orientations.

The next experiment concerns the target T15, P1-AA.
T15 chain: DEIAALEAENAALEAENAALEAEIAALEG
The following applies: mean of both orientations.

The next experiment addresses T16, P11-AA.
T16 chain: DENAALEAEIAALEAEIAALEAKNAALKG
The following applies: mean of both orientations.

In another experiment the target is T17, P6-AA-1HAA-N.
T17 chain: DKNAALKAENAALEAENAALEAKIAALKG
The following applies: mean of both orientations.

A further experiment deals with T18, P7-AA.
T18 chain: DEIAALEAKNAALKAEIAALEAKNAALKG
The following applies: mean of both orientations.

A further experiment concerns the target T19, P8-AA.
T19 chain: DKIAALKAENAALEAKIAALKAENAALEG
The following applies: mean of both orientations.

The target of the next experiment is T20, 4H2705-AA.
T20 chain: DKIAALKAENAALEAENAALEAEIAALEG
The following applies: mean of both orientations.

A further experiment concerns the target T21, 4H2736-AA.
T21 chain: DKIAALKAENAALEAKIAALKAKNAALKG
The following applies: mean of both orientations.

In another experiment the target is T22, 4H2888-AA.
T22 chain: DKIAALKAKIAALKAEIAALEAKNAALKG
The following applies: mean of both orientations.

A further experiment addresses T23, 4H337-AA.
T23 chain: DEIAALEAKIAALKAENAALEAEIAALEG
The following applies: mean of both orientations.

In a further experiment the target is T24, 4H3625-AA.
T24 chain: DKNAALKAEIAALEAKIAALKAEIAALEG
The following applies: mean of both orientations.

The target of another experiment is T25, 4H3905-AA.
T25 chain: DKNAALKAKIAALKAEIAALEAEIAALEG
The following applies: mean of both orientations.

In another experiment the target is T26, 4H43-AA.
T26 chain: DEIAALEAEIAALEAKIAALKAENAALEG
The following applies: mean of both orientations.

The target in a further experiment is T27, 4H451-AA.
T27 chain: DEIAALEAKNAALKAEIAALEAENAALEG

The target of another experiment is T28, 4H510-AA.
T28 chain: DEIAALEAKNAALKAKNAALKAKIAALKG
The following applies: mean of both orientations.

For a further experiment, the target named is T29, O5-AA.
T29 chain: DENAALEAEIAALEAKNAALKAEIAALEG
The following applies: mean of both orientations.

In the next experiment the target is T30, 4H3855-AA.
T30 chain: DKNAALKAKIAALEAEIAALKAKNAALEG
The following applies: mean of both orientations.

A further experiment addresses T31, 4H4001-AA.
T31 chain: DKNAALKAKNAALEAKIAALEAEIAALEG
The following applies: mean of both orientations.

Another experiment concerns the target T32, 4H568-AA.
T32 chain: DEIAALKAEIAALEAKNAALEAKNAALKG
The following applies: mean of both orientations.

The target of a further experiment is T33, 4H883-AA.
T33 chain: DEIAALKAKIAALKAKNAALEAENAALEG

For another experiment, the target named is T34, 4H918-AA.
T34 chain: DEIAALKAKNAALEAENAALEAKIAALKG
The following applies: mean of both orientations.

In the next experiment the target is T35, 4H967-AA.
T35 chain: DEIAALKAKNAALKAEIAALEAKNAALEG
The following applies: mean of both orientations.

Another experiment has as its target T36, 4H1257-AA.
T36 chain: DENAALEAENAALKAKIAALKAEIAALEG

For another experiment, the target named is T37, 4H130-AA.
T37 chain: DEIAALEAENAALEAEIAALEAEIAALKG
The following applies: mean of both orientations.

Another experiment addresses T38, 4H1360-AA.
T38 chain: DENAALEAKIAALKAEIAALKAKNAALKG
The following applies: mean of both orientations.

The target of the next experiment is T39, 4H1558-AA.
T39 chain: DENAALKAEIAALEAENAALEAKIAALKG
The following applies: mean of both orientations.

A further experiment addresses T40, 4H2343-AA.
T40 chain: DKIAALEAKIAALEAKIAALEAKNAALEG
The following applies: mean of both orientations.

The target in the next experiment is T41, 4H335-AA.
T41 chain: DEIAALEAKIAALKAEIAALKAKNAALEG
The following applies: mean of both orientations.

The target of a further experiment is T42, 4H1153-AA.
T42 chain: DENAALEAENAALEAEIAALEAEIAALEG

The target of another experiment is T43, 4H123-AA.
T43 chain: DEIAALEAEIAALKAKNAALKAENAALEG
The following applies: mean of both orientations.

Regarding DEIAALEAENAALKAKNAALKAEIAALEG [4H249-AA], the interaction score with 4H2504-AA is -1.35; with 4H3493-AA, -1.67; with 4H376-AA, -1.45; with 4H688-AA it was 0.32; with 4H963-AA it was -1.65.

For the molecule DENAALEAKIAALKAKNAALKAEIAALEG [4H1401-AA], the interaction score with 4H1552-AA is -0.741; with 4H1867-AA it was -1.22; with 4H2151-AA, -1.5; with 4H_APH3 it was -1.06; with AP2-AA it was -1.98; with AP3-AA, -0.918. The interaction score is -1.22 with AP4-AA; -1.73 with AP6-AA; -0.198 with AP8-AA; -0.911 with P1-AA; 0.388 with P11-AA; 1.57 in the experiment with P6-AA-1HAA-N. The interaction score with P7-AA is -1.39; with P8-AA it was 0.854.

Turning to DENAALEAKIAALKAKIAALKAEIAALEG [4H1385-AA], the interaction score with 4H2705-AA was -1.8; with 4H2736-AA, -0.116; in the experiment with 4H2888-AA, 1.96; with 4H337-AA it was 0.173; with 4H3625-AA it was 1.76; in the experiment with 4H3905-AA, 2.31. In addition, the interaction score in the experiment with 4H43-AA is 1.97; in the experiment with 4H451-AA, -1.11; with 4H510-AA, -1.54; with P6-AA-1HAA-N, -0.2.

Consider DKNAALKAEIAALEAENAALEAKIAALKG [4H3606-AA], for which the interaction score in the experiment with 4H_APH3 is -1.55; with AP2-AA it was -1.36; with AP3-AA, -1.06; with AP4-AA, -1.63; with AP6-AA it was -0.593; with AP8-AA, -1.43. Also, the interaction score in the experiment with O5-AA was 2.23; with P1-AA, -1.64; with P11-AA, -1.15; with P7-AA it was 1.24; in the experiment with P8-AA it was -0.645.

Take DENAALKAKIAALEAKNAALEAKIAALEG [4H1845-AA]: the interaction score with 4H3855-AA is -1.94; with 4H4001-AA it was -1.9; in the experiment with 4H568-AA, -1.18; with 4H883-AA (mean of both orientations) it was -1.57; in the experiment with 4H918-AA, -1; in the experiment with 4H967-AA, -1.65.

As to DENAALEAENAALKAKIAALKAEIAALEG [4H1257-AA], the interaction score in the experiment with 4H1257-AA is 0.41; with 4H130-AA, 1.9; with 4H1360-AA, -0.666; with 4H1558-AA, -0.232; with 4H3855-AA it was -0.401; with 4H4001-AA, -0.973. Further, the interaction score is -0.953 with 4H568-AA, -1.67 in the experiment with 4H883-AA, -1.05 with 4H918-AA and -0.389 in the experiment with 4H967-AA.

In the case of DKIAALEAEIAALKAKNAALEAKIAALEG [4H2165-AA], the interaction score with 4H2343-AA was -1.25; in the experiment with 4H335-AA it was -1.5.

For DENAALEAEIAALEAKIAALEAKNAALKG [4H1064-AA], the interaction score with 4H1257-AA (mean of both orientations) is 0.616; with 4H130-AA, -0.874; in the experiment with 4H1360-AA it was 0.702; with 4H1558-AA, -1.61.

The molecule DEIAALEAENAALEAKIAALKAENAALEG [4H171-AA] gave an interaction score with O5-AA of -0.0194.

DENAALEAKIAALKAEIAALEAKIAALKG [4H1350-AA]: the interaction score with 4H2705-AA is -1.8; with 4H2736-AA it was -1.22; with 4H2888-AA it was 2.21; in the experiment with 4H337-AA it was 1.52; with 4H3625-AA, 1.97; with 4H3905-AA it was 1.9. Moreover, the interaction score was 2.09 with 4H43-AA, 0.115 in the experiment with 4H451-AA (mean of both orientations) and -1.17 with 4H510-AA.

On to DKIAALEAENAALKAEIAALKAKIAALEG [4H2253-AA], for which, in the experiment with 4H2343-AA, the interaction score is -2.02.

Turning to DENAALEAENAALEAEIAALEAEIAALEG [4H1153-AA], the interaction score was -1.43 with 4H1153-AA; -2.05 in the experiment with 4H123-AA; -0.818 with 4H1552-AA; 0.531 with 4H1867-AA; -1.21 in the experiment with 4H2151-AA; -0.418 with 4H335-AA.

Consider DENAALKAEIAALKAENAALKAEIAALKG [4H1626-AA], for which the interaction score with 4H2504-AA was -1.49; with 4H3493-AA (mean of both orientations), -1.45; with 4H376-AA it was -1.87; with 4H688-AA, -1.19; in the experiment with 4H963-AA it was -1.46.

With DENAALEAEIAALKAKNAALEAKIAALKG [4H1142-AA], the interaction score in the experiment with 4H1153-AA (mean of both orientations) was -1.39; with 4H123-AA, -1.25.
